By Kd is commonly meant the concentration at which binding is half-saturated. Read a high Kd as weaker binding.

The text below walks through data of publication PMC12698673 (Communications Biology, 2025).

The chains are these.
B1: CBP-KIX MLLmut (I660A and L664A) (domain or fragment)
chain: not shown
B2: CBP-KIX c-Mybmut (Y650A, A654Q, and Y658A) (domain or fragment)
chain: not shown
B3: FOXO4-CR3 (conserved region 3, transactivation domain of FOXO4, aa 469–505) (domain or fragment, UniProt P98177 469-505, looked up)
chain: DLDLDMYMENLECDMDNIISDLMDEGEGLDFNFEPDP

Ends that are not written are not given here. * marks the point of attachment. MTSL = CC1(C)C=C(CS*)C(C)(C)N1[O]

For test [1], the target named is B2. The test can be described thus: paramagnetic relaxation enhancement.
For test [2], the target named is B3. As to the kind of experiment: ITC.
For test [3], the target named is B2. As to the kind of experiment: NMR titration.
Test [4] has as its target KIX domain of CBP (CBP-KIX, aa 586–672) (UniProt P45481 586-672). As to the kind of experiment: ITC. (ITC needs no label: the signal is the heat of the interaction.)
Test [5] addresses B1. As to the kind of experiment: ITC.
Test [6] concerns the target B2. The test can be described thus: ITC.

Chain of KIX domain of CBP (CBP-KIX, aa 586–672) (P45481 586-672): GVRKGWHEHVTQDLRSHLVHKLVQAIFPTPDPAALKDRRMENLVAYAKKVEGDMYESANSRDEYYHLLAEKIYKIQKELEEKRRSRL

Regarding DLDLDMYMENLEC(MTSL)DMDNIISDLMDEGEGLDFNFEPDP (domain or fragment, UniProt P98177 469-505, looked up) [FOXO4-CR3 labelled with MTSL at C481], the binding result in test [1] is recorded as “binds”.

Regarding B1, the dH in test [2] was -4.58 kcal/mol. For DLDLDMYMENLECDMDNIISDLADEGEGLDFNFEPDP (domain or fragment, UniProt P98177 469-505, looked up) [FOXO4-CR3 M491A], the binding result in test [3] is recorded as “binds”.

Take B2: the dH in test [2] was -1.43 kcal/mol.

For the molecule B3, the values for the equilibrium dissociation constant (Kd) in test [4], in test [5] and in test [6] were 3350 ± 140 nM, 2760 nM and 1200 nM, respectively.
